The values below come from publication PMC12506513, “Conformational dynamics of the bacterial E3 ligase SspH1” (The Journal of Biological Chemistry, 2025).

Sequences and labels used below:
B1: ΔNSspH1 (161-700) (domain or fragment)
chain: AEYDAVWSKWERDAPAGESPGRAAVVQEMRDCLNNGNPVLNVGASGLTTLPDRLPPHITTLVIPDNNLTSLPELPEGLRELEVSGNLQLTSLPSLPQGLQKLWAYNNWLASLPTLPPGLGDLAVSNNQLTSLPEMPPALRELRVSGNNLTSLPALPSGLQKLWAYNNRLTSLPEMSPGLQELDVSHNQLTRLPQSLTGLSSAARVYLDGNPLSVRTLQALRDIIGHSGIRIHFDMAGPSVPREARALHLAVADWLTSAREGEAAQADRWQAFGLEDNAAAFSLVLDRLRETENFKKDAGFKAQISSWLTQLAEDAALRAKTFAMATEATSTCEDRVTHALHQMNNVQLVHNAEKGEYDNNLQGLVSTGREMFRLATLEQIAREKAGTLALVDDVEVYLAFQNKLKESLELTSVTSEMRFFDVSGVTVSDLQAAELQVKTAENSGFSKWILQWGPLHSVLERKVPERFNALREKQISDYEDTYRKLYDEVLKSSGLVDDTDAERTIGVSAMDSAKKEFLDGLRALVDEVLGSYLTARWRLN
notes: also called WT SspH1; source: E. coli BL21 Gold, purified (nickel-nitrilotriacetic acid resin, 3C protease, gel filtration)

Holding throughout (details): both partners purified
One assay deals with T1, 15N-labeled ubiquitin (UniProt P0CG48 1-76, 15N isotope-enriched).
T1 construct: also called 15N-Ub; free Ub
In words: NMR titration; 15N-Ub titrated with SspH1 constructs; 1H-15N HSQC, 800 MHz; chemical shift perturbations and line broadening of Ub backbone amides.

For assay [1], the target named is T2, full-length SspH1 (1 to 700) (Salmonella, UniProt D0ZVG2 1-700).
T2 construct: also called FL SspH1; FL protein; source: E. coli BL21 Gold, purified (nickel-nitrilotriacetic acid resin, 3C protease, gel filtration)
T2 sequence: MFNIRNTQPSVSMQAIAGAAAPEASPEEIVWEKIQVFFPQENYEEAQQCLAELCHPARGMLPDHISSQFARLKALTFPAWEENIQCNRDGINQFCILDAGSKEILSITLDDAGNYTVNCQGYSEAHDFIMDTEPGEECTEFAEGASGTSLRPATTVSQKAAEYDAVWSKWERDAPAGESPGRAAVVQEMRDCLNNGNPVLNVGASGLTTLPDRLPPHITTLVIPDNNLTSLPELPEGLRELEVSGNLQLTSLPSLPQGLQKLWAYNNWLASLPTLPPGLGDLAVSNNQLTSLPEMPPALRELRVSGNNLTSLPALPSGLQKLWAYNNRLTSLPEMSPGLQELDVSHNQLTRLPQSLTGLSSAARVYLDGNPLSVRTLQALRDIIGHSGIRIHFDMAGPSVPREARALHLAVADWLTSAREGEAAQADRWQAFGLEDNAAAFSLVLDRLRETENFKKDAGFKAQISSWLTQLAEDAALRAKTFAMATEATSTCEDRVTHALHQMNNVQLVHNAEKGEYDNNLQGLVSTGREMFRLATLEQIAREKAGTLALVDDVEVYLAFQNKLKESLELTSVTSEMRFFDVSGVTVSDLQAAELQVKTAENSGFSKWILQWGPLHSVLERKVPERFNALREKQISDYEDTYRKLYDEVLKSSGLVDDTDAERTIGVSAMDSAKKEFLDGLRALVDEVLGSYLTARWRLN
In words: SEC-MALS; SEC-MALLS of FL SspH1 and ΔNSspH1 alone and with the substrate PKN1; in the range of concentrations explored. (In general: In gel filtration, larger molecules generally elute earlier.)

The assay “ΔNSspH1 (161-700)” deals with B1. The description is as above.

Turning to B1, the binding result with 15N-labeled ubiquitin is reported as “binds”.

B2: E487R SspH1 (domain or fragment)
chain: AEYDAVWSKWERDAPAGESPGRAAVVQEMRDCLNNGNPVLNVGASGLTTLPDRLPPHITTLVIPDNNLTSLPELPEGLRELEVSGNLQLTSLPSLPQGLQKLWAYNNWLASLPTLPPGLGDLAVSNNQLTSLPEMPPALRELRVSGNNLTSLPALPSGLQKLWAYNNRLTSLPEMSPGLQELDVSHNQLTRLPQSLTGLSSAARVYLDGNPLSVRTLQALRDIIGHSGIRIHFDMAGPSVPREARALHLAVADWLTSAREGEAAQADRWQAFGLEDNAAAFSLVLDRLRETENFKKDAGFKAQISSWLTQLAEDAALRAKTFAMATRATSTCEDRVTHALHQMNNVQLVHNAEKGEYDNNLQGLVSTGREMFRLATLEQIAREKAGTLALVDDVEVYLAFQNKLKESLELTSVTSEMRFFDVSGVTVSDLQAAELQVKTAENSGFSKWILQWGPLHSVLERKVPERFNALREKQISDYEDTYRKLYDEVLKSSGLVDDTDAERTIGVSAMDSAKKEFLDGLRALVDEVLGSYLTARWRLN
notes: also called E487R mutant; source: E. coli BL21 Gold, purified (nickel-nitrilotriacetic acid resin, 3C protease, gel filtration)
With B2, the binding result with 15N-labeled ubiquitin was “binds”.

B3: SspH1 NEL domain (405 to 700) (domain or fragment)
chain: RALHLAVADWLTSAREGEAAQADRWQAFGLEDNAAAFSLVLDRLRETENFKKDAGFKAQISSWLTQLAEDAALRAKTFAMATEATSTCEDRVTHALHQMNNVQLVHNAEKGEYDNNLQGLVSTGREMFRLATLEQIAREKAGTLALVDDVEVYLAFQNKLKESLELTSVTSEMRFFDVSGVTVSDLQAAELQVKTAENSGFSKWILQWGPLHSVLERKVPERFNALREKQISDYEDTYRKLYDEVLKSSGLVDDTDAERTIGVSAMDSAKKEFLDGLRALVDEVLGSYLTARWRLN
notes: also called isolated NEL domain; source: E. coli BL21 Gold, purified (nickel-nitrilotriacetic acid resin, 3C protease, gel filtration)
Regarding B3, the binding result in the assay with 15N-labeled ubiquitin is reported as “binds”.

B4: PKN1 HR1b domain (residues 122-199) (domain or fragment)
chain: not shown
notes: also called HR1b PKN1; substrate PKN1; source: E. coli BL21 Gold, purified (nickel-nitrilotriacetic acid resin, 3C protease, gel filtration)
What is called stoichiometry N is the number of molecules, sites or subunits per partner or assembly. Turning to B4, the “stoichiometry N” value (in assay [1]; with ΔNSspH1 (161-700)) was 1 throughout.
